In patent publication US20220332804A1 (CSL INNOVATION, published 2022):

Assays:
Test in all cases: SPR, antibody captured, C2 as analyte;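 also: biacore SPR at 37 °C, anti-C2 mAbs captured via goat anti-human IgG on CM5 chips, double-referenced sensorgrams fit to a 1:1 kinetic or steady-state model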
human C2 L706A = biological target: T1, human C2 L706A (human, UniProt P06681 21-752)
T1 sequence: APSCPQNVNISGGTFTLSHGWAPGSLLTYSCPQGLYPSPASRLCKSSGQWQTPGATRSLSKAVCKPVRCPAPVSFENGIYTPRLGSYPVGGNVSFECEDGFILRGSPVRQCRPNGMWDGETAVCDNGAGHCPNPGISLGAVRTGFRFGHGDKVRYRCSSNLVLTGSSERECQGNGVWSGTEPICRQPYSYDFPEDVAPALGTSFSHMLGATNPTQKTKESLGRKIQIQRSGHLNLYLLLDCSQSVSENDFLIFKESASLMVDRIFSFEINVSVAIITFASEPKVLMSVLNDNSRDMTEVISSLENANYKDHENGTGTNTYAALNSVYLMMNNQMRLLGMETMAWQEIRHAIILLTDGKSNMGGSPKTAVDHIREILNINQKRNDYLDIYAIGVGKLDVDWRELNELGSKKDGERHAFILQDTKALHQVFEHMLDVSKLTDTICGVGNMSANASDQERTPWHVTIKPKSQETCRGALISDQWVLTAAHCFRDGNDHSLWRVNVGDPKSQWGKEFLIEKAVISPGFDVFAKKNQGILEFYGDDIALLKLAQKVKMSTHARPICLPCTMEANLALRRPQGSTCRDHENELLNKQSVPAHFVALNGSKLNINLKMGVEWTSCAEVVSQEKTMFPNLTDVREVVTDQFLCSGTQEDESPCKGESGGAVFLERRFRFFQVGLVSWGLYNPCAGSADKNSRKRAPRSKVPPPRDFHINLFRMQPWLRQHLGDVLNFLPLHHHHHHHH

human C2 R434A = biological target: T2, human C2 R434A (human, UniProt P06681 21-752)
T2 sequence: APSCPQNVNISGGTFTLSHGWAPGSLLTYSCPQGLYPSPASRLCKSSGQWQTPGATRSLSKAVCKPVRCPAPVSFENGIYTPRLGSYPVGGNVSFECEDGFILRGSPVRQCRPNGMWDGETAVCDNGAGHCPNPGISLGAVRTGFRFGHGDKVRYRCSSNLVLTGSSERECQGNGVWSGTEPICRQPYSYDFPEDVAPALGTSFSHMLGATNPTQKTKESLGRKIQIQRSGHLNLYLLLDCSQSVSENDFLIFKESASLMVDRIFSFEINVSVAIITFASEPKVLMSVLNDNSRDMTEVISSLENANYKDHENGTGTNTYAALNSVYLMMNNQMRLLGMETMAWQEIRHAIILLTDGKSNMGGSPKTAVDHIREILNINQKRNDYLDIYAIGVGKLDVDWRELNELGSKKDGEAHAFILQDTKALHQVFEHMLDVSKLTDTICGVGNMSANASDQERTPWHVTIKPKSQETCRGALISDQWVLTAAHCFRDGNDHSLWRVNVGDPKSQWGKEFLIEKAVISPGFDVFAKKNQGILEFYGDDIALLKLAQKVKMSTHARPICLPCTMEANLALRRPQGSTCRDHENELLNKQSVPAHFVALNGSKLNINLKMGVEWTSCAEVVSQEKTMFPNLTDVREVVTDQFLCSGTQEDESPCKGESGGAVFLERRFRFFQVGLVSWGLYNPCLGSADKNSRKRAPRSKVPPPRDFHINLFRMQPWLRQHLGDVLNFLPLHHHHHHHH

human C2 P724A = biological target: T3, human C2 P724A (human, UniProt P06681 21-752)
T3 sequence: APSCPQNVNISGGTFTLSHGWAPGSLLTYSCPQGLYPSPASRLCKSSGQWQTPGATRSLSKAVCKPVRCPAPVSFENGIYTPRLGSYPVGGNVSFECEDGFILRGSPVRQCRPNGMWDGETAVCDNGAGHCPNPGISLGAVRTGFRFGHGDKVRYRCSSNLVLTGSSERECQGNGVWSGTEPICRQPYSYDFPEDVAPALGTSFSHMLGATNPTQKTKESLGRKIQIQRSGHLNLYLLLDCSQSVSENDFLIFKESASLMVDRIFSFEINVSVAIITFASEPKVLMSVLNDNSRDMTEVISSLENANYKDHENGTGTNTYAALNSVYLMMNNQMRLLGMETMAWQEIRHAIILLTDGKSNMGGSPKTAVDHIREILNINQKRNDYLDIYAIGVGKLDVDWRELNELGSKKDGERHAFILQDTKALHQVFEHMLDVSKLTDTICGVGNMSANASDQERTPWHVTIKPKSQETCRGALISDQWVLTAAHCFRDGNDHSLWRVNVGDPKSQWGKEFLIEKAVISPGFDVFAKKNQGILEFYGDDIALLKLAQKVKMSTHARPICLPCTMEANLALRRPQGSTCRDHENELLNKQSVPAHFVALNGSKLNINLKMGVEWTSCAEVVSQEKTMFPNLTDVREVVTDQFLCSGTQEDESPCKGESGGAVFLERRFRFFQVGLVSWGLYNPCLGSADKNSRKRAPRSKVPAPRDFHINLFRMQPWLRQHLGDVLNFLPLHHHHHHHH

human C2 K443A = biological target: T4, human C2 K443A (human, UniProt P06681 21-752)
T4 sequence: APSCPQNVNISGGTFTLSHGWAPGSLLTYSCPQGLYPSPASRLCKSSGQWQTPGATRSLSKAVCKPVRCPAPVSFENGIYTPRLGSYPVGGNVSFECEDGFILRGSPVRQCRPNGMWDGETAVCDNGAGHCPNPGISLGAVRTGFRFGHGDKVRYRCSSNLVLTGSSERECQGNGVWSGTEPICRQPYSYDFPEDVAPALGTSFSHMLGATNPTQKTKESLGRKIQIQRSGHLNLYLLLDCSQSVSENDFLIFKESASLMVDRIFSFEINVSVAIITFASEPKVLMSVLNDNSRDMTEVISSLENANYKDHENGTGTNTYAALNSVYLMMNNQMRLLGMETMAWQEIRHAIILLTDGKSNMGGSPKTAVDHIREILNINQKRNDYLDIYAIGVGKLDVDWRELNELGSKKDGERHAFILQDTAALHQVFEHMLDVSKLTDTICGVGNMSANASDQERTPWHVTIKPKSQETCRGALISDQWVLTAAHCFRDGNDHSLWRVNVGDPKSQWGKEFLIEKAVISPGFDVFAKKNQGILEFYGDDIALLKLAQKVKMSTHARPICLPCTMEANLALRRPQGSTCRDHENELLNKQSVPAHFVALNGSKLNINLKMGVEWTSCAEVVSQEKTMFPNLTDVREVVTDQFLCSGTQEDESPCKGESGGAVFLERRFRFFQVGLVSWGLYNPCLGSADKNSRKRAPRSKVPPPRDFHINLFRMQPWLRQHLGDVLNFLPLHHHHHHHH

B1: RF16-226 (antibody, human IgG4 S228P, lambda)
heavy: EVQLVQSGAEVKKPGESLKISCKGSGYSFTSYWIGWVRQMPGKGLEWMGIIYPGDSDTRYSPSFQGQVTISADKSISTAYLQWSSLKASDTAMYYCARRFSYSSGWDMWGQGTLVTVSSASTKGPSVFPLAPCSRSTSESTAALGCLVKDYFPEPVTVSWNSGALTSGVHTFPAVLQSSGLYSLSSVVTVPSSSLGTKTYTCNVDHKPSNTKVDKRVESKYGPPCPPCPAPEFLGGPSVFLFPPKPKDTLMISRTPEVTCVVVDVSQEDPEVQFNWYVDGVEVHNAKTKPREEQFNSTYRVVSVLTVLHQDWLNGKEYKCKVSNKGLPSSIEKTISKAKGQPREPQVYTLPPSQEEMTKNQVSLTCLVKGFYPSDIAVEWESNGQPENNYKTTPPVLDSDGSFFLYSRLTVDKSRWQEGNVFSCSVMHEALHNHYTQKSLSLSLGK
light: SYELTQPPSVSVSPGQTARITCSGDALTSKYVAWYQQKSGLAPLLVIYEDTRRPSGIPAKFSGSSSGSVATLTISGAHGDDEADYYCYSTDASGHQRVFGGGTKLTVLSQPKAAPSVTLFPPSSEELQANKATLVCLISDFYPGAVTVAWKADGSPVKAGVETTKPSKQSNNKYAASSYLSLTPEQWKSHRSYSCQVTHEGSTVEKTVAPTECS
notes: pH-dependent anti-C2 antibody from a phage display library; also called WT
With B1 the Kd (human C2 L706A) was 229 nM, the Kd (human C2 R434A) was 142 nM and the Kd (human C2 P724A) was 397 nM. B1: no binding (human C2 K443A).
